Measured values taken from article doi:10.1101/2024.05.10.593535, “Single residue changes to the histone core catalyze neofunctionalization and impose fitness trade-offs” (bioRxiv, 2024).

Target: T1, S. pombe 14xHis-Spt6(282-1159) (S. pombe, UniProt Q09915 282-1159)
T1 construct: transcription elongation factor Spt6, S. pombe, truncated version corresponding to residues 282-1159; Held on Ni-NTA resin by the 14xHis tag in the pulldowns; also called PZH_670; source: E. coli BL21(DE3), purified (Ni Sepharose, dialysis)
T1 sequence (looked up): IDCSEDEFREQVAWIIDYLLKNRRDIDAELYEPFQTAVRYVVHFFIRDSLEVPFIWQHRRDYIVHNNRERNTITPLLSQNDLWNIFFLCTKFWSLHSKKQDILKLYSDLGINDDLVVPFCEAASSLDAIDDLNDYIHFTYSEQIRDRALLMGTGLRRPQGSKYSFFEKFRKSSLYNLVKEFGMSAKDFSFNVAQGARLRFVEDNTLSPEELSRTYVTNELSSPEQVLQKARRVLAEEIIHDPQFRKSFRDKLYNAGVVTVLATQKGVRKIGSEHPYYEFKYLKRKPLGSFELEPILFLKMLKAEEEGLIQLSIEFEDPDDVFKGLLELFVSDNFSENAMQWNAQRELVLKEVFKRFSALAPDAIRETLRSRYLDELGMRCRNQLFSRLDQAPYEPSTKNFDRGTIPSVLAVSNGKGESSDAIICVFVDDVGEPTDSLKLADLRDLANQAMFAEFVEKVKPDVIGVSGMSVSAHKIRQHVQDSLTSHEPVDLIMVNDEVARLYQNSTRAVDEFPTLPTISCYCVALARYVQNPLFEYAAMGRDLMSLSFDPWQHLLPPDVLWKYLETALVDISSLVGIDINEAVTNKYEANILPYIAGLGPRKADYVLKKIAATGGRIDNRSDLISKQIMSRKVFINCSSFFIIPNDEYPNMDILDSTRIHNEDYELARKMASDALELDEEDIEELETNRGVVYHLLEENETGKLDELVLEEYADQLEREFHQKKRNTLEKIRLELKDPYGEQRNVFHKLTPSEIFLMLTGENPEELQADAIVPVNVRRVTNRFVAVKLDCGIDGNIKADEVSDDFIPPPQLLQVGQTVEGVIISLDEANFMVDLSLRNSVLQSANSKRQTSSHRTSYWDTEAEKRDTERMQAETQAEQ
Assay: pull-down; 14xHis-Spt6(282-1159) bound to Ni-NTA resin as bait, recombinant histone fusion as prey; 50 mM Tris pH 8, 150 mM NaCl, 2.5 mM DTT, 0.1% tween-20, RT; washing under physiological salt (150 mM NaCl) or stringent (300 mM NaCl) conditions; colloidal Coomassie staining
Conditions: both partners purified

B1: S. pombe Pht1 (H2A.Z), full-length N-terminal GST fusion (natural protein)
chain: not shown
notes: histone H2A.Z (Pht1), S. pombe, full length; also called full-length Pht1
- binding result: binds
